Experimental data taken from US20230218738A1 (Pfizer, published 2023).
Changes are numbered by the printed parent chain.

Legend:
Assay in all cases: BLI (Octet), F on anti-HIS tip, 20 nM mAb
[1] = target: T1, RSV F protein mutant pXCS752 (RSV A2, UniProt P03420 26-109)
T1 chain 1: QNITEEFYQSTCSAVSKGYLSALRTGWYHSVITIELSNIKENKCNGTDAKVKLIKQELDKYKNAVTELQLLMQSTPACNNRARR
T1 chain 2: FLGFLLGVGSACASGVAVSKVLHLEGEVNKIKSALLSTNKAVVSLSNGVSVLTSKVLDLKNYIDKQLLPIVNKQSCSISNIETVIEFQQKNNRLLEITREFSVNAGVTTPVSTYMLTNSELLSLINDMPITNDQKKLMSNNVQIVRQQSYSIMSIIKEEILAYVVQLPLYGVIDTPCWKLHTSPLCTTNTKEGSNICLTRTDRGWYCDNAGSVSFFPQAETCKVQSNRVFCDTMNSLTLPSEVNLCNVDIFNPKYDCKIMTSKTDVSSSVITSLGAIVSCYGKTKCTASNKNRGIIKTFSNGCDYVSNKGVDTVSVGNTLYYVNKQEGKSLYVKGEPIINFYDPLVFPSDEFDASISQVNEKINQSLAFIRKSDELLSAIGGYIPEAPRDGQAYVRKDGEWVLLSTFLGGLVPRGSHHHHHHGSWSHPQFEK

[2] = target: RSV F protein mutant pXCS754 (RSV A2, UniProt P03420 26-109)
[3] = target: RSV F protein mutant pXCS777 (RSV A2, UniProt P03420 26-109)
[4] = target: T2, RSV F protein mutant pXCS855 (RSV A2, UniProt P03420 26-109)
T2 chain 1: T1 chain 1 with S30C, C78T
T2 chain 2: T1 chain 2 with C12I, L52C, S54I, I160V, D350S

[5] = target: RSV F protein mutant pXCS857 (RSV A2, UniProt P03420 26-109)
[6] = target: T3, RSV F protein mutant pXCS858 (RSV A2, UniProt P03420 26-109)
T3 chain 1: T1 chain 1 with S30C, C78T
T3 chain 2: T1 chain 2 with C12I, L52C, S54I, D350S

[7] = target: T4, RSV F protein mutant pXCS886 (RSV A2, UniProt P03420 26-109)
T4 chain 1: T1 chain 1
T4 chain 2: T1 chain 2 with S54I, I160V, D350S, E351Q, D353S

[8] = target: T5, RSV F protein mutant pXCS888 (RSV A2, UniProt P03420 26-109)
T5 chain 1: T1 chain 1
T5 chain 2: T1 chain 2 with S54I, D350S, E351Q, D353S

B1: AM22 (antibody, V domains shown)
VH: QVQLVQSGAEVKKPGATVKVSCKISGHTLIKLSIHWVRQAPGKGLEWMGGYEGEVDEIFYAQKFQHRLTVIADTATDTVYMELGRLTSDDTAVYFCGTLGVTVTEAGLGIDDYWGQGTLVTVSS
VL: EIVLTQSPGTLSLSPGERATLSCRASQIVSRNHLAWYQQKPGQAPRLLIFGASSRATGIPVRFSGSGSGTDFTLTINGLAPEDFAVYYCLSSDSSIFTFGPGTKVDFK
Response (nm shift) [1]: 0.234 nm | Response (nm shift) [2]: 0.298 nm | Response (nm shift) [3]: 0.121 nm | Response (nm shift) [4]: 0.523 nm | Response (nm shift) [5]: 0.563 nm | Response (nm shift) [6]: 0.547 nm | Response (nm shift) [7]: 0.443 nm | Response (nm shift) [8]: 0.434 nm

B2: MPE8 (antibody, V domains shown)
VH: EVQLVESGGGLVKPGGSLRLSCAASGFTFSSYSMNWVRQAPGKGLEWVSSISASSSYSDYADSAKGRFTISRDNAKTSLFLQMNSLRAEDTAIYFCARARATGYSSITPYFDIWGQGTLVTVSS
VL: QSVVTQTPSVSGAPGQRVTISCTGSSSNIGAGYDVHWYQQLPGTAPKLLIYDNNNRPSGVPDRFSASKSGTSASLAITGLQAEDEADYYCQSYDRNLSGVFGTGTKVTVL
notes: also called MPEG
Response (nm shift) [1]: 0.703 nm | Response (nm shift) [2]: 0.676 nm | Response (nm shift) [3]: 0.27 nm | Response (nm shift) [4]: 0.982 nm | Response (nm shift) [5]: 1.09 nm | Response (nm shift) [6]: 1.06 nm | Response (nm shift) [7]: 0.863 nm | Response (nm shift) [8]: 0.878 nm
